Values quoted from earlier work, collected in publication PMC12302472.

Biological target: ATOX1 (Homo sapiens) (UniProt O00244)
Assay: SPR

Chain of UniProt O00244 (O00244 whole entry): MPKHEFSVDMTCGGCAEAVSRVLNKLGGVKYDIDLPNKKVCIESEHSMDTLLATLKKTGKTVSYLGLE

For MEMO1 (from UniProt Q9Y316), the Kd is given as 210 nM.
